# Results: patent US20090214495A1 (published 2009)
# B1: recombinant human VEGF-D fragment (amino acids 90 to 203), non covalent dimer, expressed in E. coli (ligand, UniProt O43915 90-203, looked up)
# chain: AATFYDIETLKVIDEEWQRTQCSPRETCVEVASELGKSTNTFFKPPCVNVFRCGGCCNEESLICMNTSTSYISKQLFEISVPLTSVPELVPVKVANHTGCKCLPTAPRHPYSII
# notes: range 90-203; this protein was used for the osteoblast experiments; also called recombinant VEGF-D; VEGF-D fragment comprising aa 93-203; not shown: tag from vector pET-22b used for Ni2+ IMAC / His-TRAP purification
# Biological target: T1, VEGFR-3 expressed in primary human osteoblasts (human, UniProt P35916 25-1363)
# T1 construct: whole, on cells; Endogenous receptor of the cells; also called vascular endothelial growth factor receptor-3
# T1 sequence (P35916 25-1363): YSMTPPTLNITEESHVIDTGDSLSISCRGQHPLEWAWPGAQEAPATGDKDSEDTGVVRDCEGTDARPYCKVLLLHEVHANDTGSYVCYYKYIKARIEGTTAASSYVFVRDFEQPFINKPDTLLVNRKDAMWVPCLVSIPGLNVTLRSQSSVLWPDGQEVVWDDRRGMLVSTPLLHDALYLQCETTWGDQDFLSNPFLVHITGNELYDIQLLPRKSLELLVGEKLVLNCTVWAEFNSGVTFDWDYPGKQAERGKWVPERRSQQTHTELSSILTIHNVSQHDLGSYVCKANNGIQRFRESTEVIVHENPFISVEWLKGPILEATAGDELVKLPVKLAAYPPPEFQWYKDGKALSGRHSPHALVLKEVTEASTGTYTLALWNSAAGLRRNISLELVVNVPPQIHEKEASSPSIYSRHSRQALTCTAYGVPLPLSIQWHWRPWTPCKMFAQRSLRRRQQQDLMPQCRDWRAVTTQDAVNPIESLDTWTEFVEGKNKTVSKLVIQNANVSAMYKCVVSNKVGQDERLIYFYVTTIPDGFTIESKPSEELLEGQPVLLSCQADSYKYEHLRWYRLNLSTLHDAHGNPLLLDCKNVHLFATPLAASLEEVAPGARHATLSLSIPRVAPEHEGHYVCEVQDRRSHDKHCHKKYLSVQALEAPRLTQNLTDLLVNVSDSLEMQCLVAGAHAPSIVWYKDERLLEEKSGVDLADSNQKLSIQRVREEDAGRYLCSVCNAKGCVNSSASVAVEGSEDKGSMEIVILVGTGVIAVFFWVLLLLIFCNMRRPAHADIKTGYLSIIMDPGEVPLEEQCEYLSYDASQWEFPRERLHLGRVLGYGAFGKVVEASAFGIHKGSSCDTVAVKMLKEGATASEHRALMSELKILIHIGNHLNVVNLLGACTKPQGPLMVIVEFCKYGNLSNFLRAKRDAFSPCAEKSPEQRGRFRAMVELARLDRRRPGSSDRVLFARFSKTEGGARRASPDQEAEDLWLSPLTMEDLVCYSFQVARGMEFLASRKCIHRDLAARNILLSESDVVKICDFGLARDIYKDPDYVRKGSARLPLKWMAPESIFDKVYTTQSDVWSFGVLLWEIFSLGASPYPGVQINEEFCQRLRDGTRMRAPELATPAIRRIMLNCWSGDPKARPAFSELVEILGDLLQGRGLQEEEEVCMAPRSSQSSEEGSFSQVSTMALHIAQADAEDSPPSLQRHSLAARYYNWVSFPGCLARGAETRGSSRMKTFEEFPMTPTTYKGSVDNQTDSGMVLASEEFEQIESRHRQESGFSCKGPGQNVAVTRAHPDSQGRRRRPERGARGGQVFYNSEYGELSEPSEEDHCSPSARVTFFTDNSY
# Assay: receptor auto-phosphorylation in primary human osteoblasts treated with 25 ng/ml VEGF-D
# Method: Moreover osteoblasts were treated with VEGF-D and the whole cell lisates were immunoprecipitated with an antibody recognizing VEGFR-3 C-terminus (Santa Cruz Biotechnology) and immunoblotted with anti-phosphotyrosine antibodies (Santa Cruz Biotechnology).
# Cells were stimulated for 30 min with 25 ng/ml VEGF-D at 37° C., washed with ice-cold PBS containing 0.1 mM Na₃VO₄, and lysed in 1 ml of lysis buffer (50 mM Hepes, pH 7.4, 150 mM NaCl, 1% Triton-X 100, 1.5 mM MgCl₂, 1 mM EGTA, 10 mM NaH₂PO₄, 100 mM NaF, 10 mM DTT, 1 mM Na₃VO₄, protease inhibitors, Sigma Chemical). Cells lysates were incubated on ice for 10 min, centrifuged at 10,000×g for 15 min, and the supernatants were incubated with anti-VEGFR-3 antibodies.
binder,measurement,value
B1,binding result,binds
